Assay results: publication PMC6391492, “Native mass spectrometry identifies an alternative DNA-binding pathway for BirA from Staphylococcus aureus”

Assays:
[1] = target: S. aureus BirA (biotin retention protein A, biotin protein ligase), strain Mu50, wild type (S. aureus strain Mu50); assay: native MS; holo proteins, 10 µM, with 5 µM SabioO oligonucleotide with only one BirA half site, 200 mM ammonium acetate pH 6.9, 4 °C at least 1 hour
[2] = target: S. aureus BirA (biotin retention protein A, biotin protein ligase), strain Mu50, wild type (S. aureus strain Mu50); assay: native MS; holo proteins (pre-incubated with 500 µM biotin, 1 mM ATP, 1 mM MgCl2 on ice, then buffer exchanged), no DNA, 10 µM protein in 200 mM ammonium acetate pH 6.85; dimer to monomers
SaBirA-F123G [3] = target: T1, SaBirA-F123G (Staphylococcus aureus Mu50, UniProt A0A0H3JRH8 1-323, F123G); assay: native nESI-MS; apo; one subunit on DNA; nESI-MS: 200 mM ammonium acetate pH 6.9, 10 uM protein, 5 uM DNA, 4 C >=1 h; EMSA: 50 mM Tris pH 8.0, 50 mM NaCl, 0.1 mM biotin, 1 mM ATP, 1 mM MgCl2, 10% glycerol, 10 nM DNA, room temperature 30 min; settings: protein: recombinant; label: none; blunt
SaBirA [4] = target: T2, SaBirA (Staphylococcus aureus Mu50, UniProt A0A0H3JRH8 1-323); assay: native nESI-MS; apo; one monomer on DNA, no dimer; nESI-MS: 200 mM ammonium acetate pH 6.9, 10 uM protein, 5 uM DNA, 4 C >=1 h; EMSA: 50 mM Tris pH 8.0, 50 mM NaCl, 0.1 mM biotin, 1 mM ATP, 1 mM MgCl2, 10% glycerol, 10 nM DNA, room temperature 30 min; settings: protein: recombinant; label: none; blunt
SaBirA-F123G [5] = target: T1, SaBirA-F123G; assay: native nESI-MS; apo; nESI-MS: 200 mM ammonium acetate pH 6.9, 10 uM protein, 5 uM DNA, 4 C >=1 h; EMSA: 50 mM Tris pH 8.0, 50 mM NaCl, 0.1 mM biotin, 1 mM ATP, 1 mM MgCl2, 10% glycerol, 10 nM DNA, room temperature 30 min; settings: protein: recombinant; label: none; blunt
SaBirA [6] = target: T2, SaBirA; assay: as above; settings: protein: recombinant; label: none; blunt
SaBirA-F123G [7] = target: T1, SaBirA-F123G; assay: EMSA; holo; biotin, ATP, Mg2+; nESI-MS: 200 mM ammonium acetate pH 6.9, 10 uM protein, 5 uM DNA, 4 C >=1 h; EMSA: 50 mM Tris pH 8.0, 50 mM NaCl, 0.1 mM biotin, 1 mM ATP, 1 mM MgCl2, 10% glycerol, 10 nM DNA, room temperature 30 min; settings: protein: recombinant, label: none
SaBirA [8] = target: T2, SaBirA; assay: native nESI-MS; apo; two subunits on DNA; nESI-MS: 200 mM ammonium acetate pH 6.9, 10 uM protein, 5 uM DNA, 4 C >=1 h; EMSA: 50 mM Tris pH 8.0, 50 mM NaCl, 0.1 mM biotin, 1 mM ATP, 1 mM MgCl2, 10% glycerol, 10 nM DNA, room temperature 30 min; settings: protein: recombinant; label: none; blunt
EcBirA = EcBirA (Escherichia coli, UniProt P06709 1-321); assay: native nESI-MS; holo (biotinyl-5'-AMP); two subunits on DNA; nESI-MS: 200 mM ammonium acetate pH 6.9, 10 uM protein, 5 uM DNA, 4 C >=1 h; EMSA: 50 mM Tris pH 8.0, 50 mM NaCl, 0.1 mM biotin, 1 mM ATP, 1 mM MgCl2, 10% glycerol, 10 nM DNA, room temperature 30 min; settings: protein: recombinant; chain copies: 2; label: none
EcBirA-R119W = EcBirA-R119W (Escherichia coli, UniProt P06709 1-321, R119W); assay: native nESI-MS; holo (biotinyl-5'-AMP); two subunits on DNA; 10 uM protein; nESI-MS: 200 mM ammonium acetate pH 6.9, 10 uM protein, 5 uM DNA, 4 C >=1 h; EMSA: 50 mM Tris pH 8.0, 50 mM NaCl, 0.1 mM biotin, 1 mM ATP, 1 mM MgCl2, 10% glycerol, 10 nM DNA, room temperature 30 min; settings: protein: recombinant; label: none
SaBirA [9] = target: T2, SaBirA; assay: EMSA; holo; biotin, ATP, Mg2+; up to 2 uM; nESI-MS: 200 mM ammonium acetate pH 6.9, 10 uM protein, 5 uM DNA, 4 C >=1 h; EMSA: 50 mM Tris pH 8.0, 50 mM NaCl, 0.1 mM biotin, 1 mM ATP, 1 mM MgCl2, 10% glycerol, 10 nM DNA, room temperature 30 min; settings: protein: recombinant; label: none; blunt

Molecule: S. aureus BirA (biotin retention protein A, biotin protein ligase), strain Mu50, wild type (enzyme)
- stoichiometry N [1]: 2
- stoichiometry N [2]: 2

B1: HS1m SabioO (first half-site mutated) (dsDNA)
DNA 1: TTACACAGACGATTATTAATTATAAAAGTTTACATTCG
DNA 2: CGAATGTAAACTTTTATAATTAATAATCGTCTGTGTAA
- binding result (SaBirA-F123G [3]): binds
- binding result (SaBirA [4]): binds

B2: HSm SabioO (both half-sites mutated) (dsDNA)
DNA 1: TTACACAGACGATTATTAATTATAAAAAGCAGACACCG
DNA 2: CGGTGTCTGCTTTTTATAATTAATAATCGTCTGTGTAA
- binding result (SaBirA-F123G [5]): no binding
- binding result (SaBirA [6]): no binding

B3: SabioO (dsDNA)
DNA 1: CCTTAAATGTAAACTTTTATAATTAATAAGTTTACATTTAAG
DNA 2: CCTTAAATGTAAACTTATTAATTATAAAAGTTTACATTTAAGG
- binding result (SaBirA-F123G [7]): binds

B4: SabioY (full strands) (dsDNA)
DNA 1: AACTTATTGTAAACTTTTCATTTCTTAAAGTTTACAATGGTGCT
DNA 2: AGCACCATTGTAAACTTTAAGAAATGAAAAGTTTACAATAAGTT
- binding result (SaBirA-F123G [7]; blunt): binds
- binding result (SaBirA [8]): binds

B5: EcbioO (dsDNA)
DNA 1: TAATCGACTTGTAAACCAAATTGAAAAGATTTAGGTTTACAAGTCTACAC
DNA 2: GTGTAGACTTGTAAACCTAAATCTTTTCAATTTGGTTTACAAGTCGATTA
- binding result (EcBirA): binds
- binding result (EcBirA-R119W): binds

B6: HS2m SabioO (second half-site mutated) (dsDNA)
DNA 1: TTAAATGTAAACTTATTAATTATAAAAAGCAGACACCG
DNA 2: CGGTGTCTGCTTTTTATAATTAATAAGTTTACATTTAA
- binding result (SaBirA [9]): no binding
